Measurements from paper PMC9785812 (Pharmaceutics, 2022).

Test: Shelf life in radiolabeling buffer at room temperature (iTLC)
Assay type: physicochemical
Conditions: radiolabeling buffer (0.15 M NaOAc, pH 4.7), up to 7 days, iTLC-SG, gamma counter
Experimental: Radiolabeling was performed by adding up to 200 MBq of the ^153Sm radiolabeling solution to 20 nmol of the DOTA-TATE precursor dissolved in 0.15 M NaOAc buffer (pH 4.7) in a total reaction volume of 1 mL. The reaction vial was placed in a Thermomixer C (Eppendorf) to stir (500 rpm) and the mixture was heated to 95 °C for 15 min. After incubation, the radiolabeling yield was evaluated using thin-layer chromatography. An amount of 1–2 µL of the reaction mixture was spotted on a glass microfiber chromatography paper strip impregnated with silica gel (iTLC-SG, Agilent Technologies, Diegem, Belgium) that was eluted with a 0.5 M citrate solution (pH 5.5). After elution, the TLC papers were cut in half and the activity of the bottom and top part of the TLC paper was counted for 2 min each using an automated gamma counter.
After 1 h, 3 days, 5 days and 7 days, a 5 µL sample was spotted on the TLC system described above to identify the intact fraction.

Question: For `C[C@@H](O)[C@H](NC(=O)[C@@H]1CSSC[C@H](NC(=O)[C@@H](Cc2ccccc2)NC(=O)CN2CCN(CC(=O)O)CCN(CC(=O)O)CCN(CC(=O)O)CC2)C(=O)N[C@@H](Cc2ccc(O)cc2)C(=O)N[C@H](Cc2c[nH]c3ccccc23)C(=O)N[C@@H](CCCCN)C(=O)N[C@@H]([C@@H](C)O)C(=O)N1)C(=O)O` [[^153Sm]Sm-DOTA-TATE, metal not drawn], which “radiochemical purity (intact fraction)” value is on record?
Answer: > 98%
